± gives the half width of the 95% confidence interval.
How the values were obtained:
[1] = folding stability dG unfold from trypsin proteolysis; higher = more stable
Method in brief: (§1)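 K50 was inferred by Bayesian fitting of sequencing counts obtained after protease digestion of designed mini-proteins. Unfolding free energy was derived by comparison with a sequence-predicted unfolded-state K50 and a shared folded-state K50, for each protease or both combined. The mini-proteins were under 80 residues, had no cysteine, were carried in a PA-tagged cDNA display construct, and were kept only if AlphaFold2 dimer inter-PAE exceeded 15.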

[2] = folding stability dG unfold from chymotrypsin proteolysis; higher = more stable
Method in brief: as §1

[3] = folding stability dG unfold (combined trypsin and chymotrypsin); higher = more stable
Method in brief: as §1

Sequence	folding stability dG unfold [1] [kcal/mol]	folding stability dG unfold [2] [kcal/mol]	folding stability dG unfold [3] [kcal/mol]
SAGGSADEVEITLELEVELAPGQKTLTFKLLNLPPGLKFEVEEVELKVVEEDGKLRVEATIRIKKDSAGGSA [r15_321_TrROS_Hall]	2.86 ± 0.17	4.34 ± 0.17	3.72 ± 0.16
SAGGSADIPSDWTVTPVSSSYDPATGTTTTEETVYDSKGNPQYKITVTTTFDPTTGTTTTTVTYNPSAGGSA [r15_1028_JUSTAS]	2.37 ± 0.066	2.054 ± 0.018	2.17 ± 0.058
SAGGSADLPPEVGSVTYSQNVPLDEIDEFIQEVIEKLGISPEEIKEIKVSRKTVPGSGVVSLTIVLSAGGSA [r15_934_JUSTAS]	1.46 ± 0.061	1.18 ± 0.072	1.34 ± 0.13
SAGGSADNLMFMFEFEFSFEWSNPDGEPMTMEVPITVMIPIPIPVPKATPEAMKDPEKAKEAQEEASAGGSA [r15_728_TrROS]	2.39 ± 0.22	3.51 ± 0.19	3.39 ± 0.32
SAGGSADNTDVKTEVVGFRLPGYEGLNFLINIQPKDKPKTIFASEAELPLFEEAGIPVVFTSSLPLSAGGSA [r15_783_TrMRF]	-0.15 ± 0.29	-0.0437 ± 0.43	-0.131 ± 0.24
SAGGSADYYLIVIEIEKNGKKYKIVLVVSKEDLKKLEEEIKKKFPDVKIKIKVIKFPSKEEALKALSAGGSA [r15_889_TrROS_Hall]	2.97 ± 0.1	3.74 ± 0.054	3.46 ± 0.12
SAGGSAEEDEVVTIRAVLENGEVRELEVKLPEGTRIYIPGTGEVREVPFGDEVPVPANSDLLVEPVSAGGSA [r15_152_TrMRF]	-0.106 ± 0.13	-0.642 ± 0.25	-0.819 ± 0.62
SAGGSAEEEEARRLAEELARRLEEEGYEIERVEVRVERLPDGTVRITVRVYRKDGKPVLELEITLPSAGGSA [r15_232_TrROS_Hall]	4.54 ± 0.19	4.99 ± 0.18	4.97 ± 0.11
SAGGSAEEEVYRVRVTVTYRNPETGEVVEEVELVIEVEKGKTVEEVARELAKKLNVDRVEVELVPPSAGGSA [r15_540_TrROS_Hall]	3.65 ± 0.11	4.52 ± 0.091	4.27 ± 0.1
SAGGSAEFKIEAEVLSKEVNPETGKPVVKVKIKIEKYNPETGKKEEKEIELELSEEELEKLLKELGSAGGSA [r2_357_TrMRF]	3.61 ± 0.23	2.93 ± 0.08	3.13 ± 0.13
SAGGSAEIVIVESPQQVREAAEPENPDGPPVKVIPMTYEEAKNEIRELKKKGKPMKIVIVIDPGTPSAGGSA [r15_567_TrROS]	-0.547 ± 0.41	-0.167 ± 0.24	-0.429 ± 0.65
SAGGSAEKPEIGAEIVTYKDKDKPLYIVAVPFFDENGNLVGVLVKEFDNPEEAKEFLEALGFGKIESAGGSA [r15_127_TrMRF]	1.55 ± 0.14	1.68 ± 0.038	1.56 ± 0.12
SAGGSAEKPPYVIRLEITVKGPGKKVKLDILVDSPEELEAVIQALKDLGFTDIEPKIETFPLEELDSAGGSA [r15_1015_TrMRF]	1.63 ± 0.12	2.42 ± 0.11	2.18 ± 0.17
SAGGSAEKPVKIHLMYNPDYYYVRIRNNGGPQSFMFKPDMDIEEIANNFPPGIDEIEIHPMPPEAFSAGGSA [r15_1058_TrROS]	0.251 ± 0.14	0.491 ± 0.099	0.421 ± 0.1
SAGGSAENKTIKITFTFKNAKNAIFTINVEKGNKTYKITFNLSDNQELNIEVDYNNTKVSFSIYPASAGGSA [r15_414_TrMRF]	3.94 ± 0.48	5.35 ± 0.21	4.74 ± 0.43
SAGGSAEPIGTLTLSFPVKVKVKDADGSIHEYDVTITVTPTVYRLPNGDLVVGLDVEIVFPDGSSLPGSAGG [r13_113_TrMRF]	3.11 ± 0.1	4.42 ± 0.065	4.16 ± 0.066
SAGGSAERVLIEAESLEEAKAALEELGVTRVEEREVDGKRYLILVDLDDPEKIEVFSREELEKLLKSAGGSA [r15_11_TrROS_Hall]	0.935 ± 0.034	1.78 ± 0.093	1.55 ± 0.083
SAGGSAETIEIEIKVKTEEEREKLKEALKKIPSIKEVKELPDGTIKITVSKENLDKIKEALKKAGVSAGGSA [r15_834_TrROS_Hall]	3.37 ± 0.34	2.25 ± 0.24	3.31 ± 0.65
SAGGSAETKTVVIEVKLPEELKGLSAEELAALLAEELAKKPGVKEVTVTVERDEETDTLRVTITYPSAGGSA [r15_1029_TrROS_Hall]	3.21 ± 0.05	2.94 ± 0.043	3.12 ± 0.042
SAGGSAETTKDPNKPVETISTPGTLIKITKYPDSYNATIEPLDENGNVTGSESGPIKSIEEVLRQLSAGGSA [r15_288_JUSTAS]	-0.615 ± 0.16	0.597 ± 0.067	0.216 ± 0.12
SAGGSAETVVVRIEVRDPETGETLELEIEVRRDMTEEELRELAEELARALKEAGYEVRVEVVRLPPSAGGSA [r15_268_TrROS_Hall]	3.11 ± 0.073	2.26 ± 0.11	2.61 ± 0.091

Sequence	folding stability dG unfold [1] [kcal/mol]	folding stability dG unfold [2] [kcal/mol]	folding stability dG unfold [3] [kcal/mol]
SAGGSAEVERFEIPVTSEEELEKLIEELKKAPGVLSVEKTPDGTLVVTVPKGKSDIVEEAAKKAGLSAGGSA [r15_834_JUSTAS]	2.7 ± 0.12	3.17 ± 0.11	2.97 ± 0.09
SAGGSAEVTFTLPDGTPFSGEVTRFPDSIRVTLTVGSTPASFEMDPSTNLITGNIPGRPLTVSLGLSAGGSA [r2_194_JUSTAS]	1.17 ± 0.03	1.11 ± 0.1	1.18 ± 0.053
SAGGSAEVTITVEYDEETGVLKITITVPPGVTVEEIAEALKKLVPDVKVEKNEDGTITVYVKLPEKSAGGSA [r15_1057_TrROS_Hall]	2.44 ± 0.16	4.36 ± 0.16	4.07 ± 0.33
SAGGSAFKIKIPEDLRGAPPGGKIEIEFPNGVRAEIEYKDGEWVIEVKHYGPNGKPVEEHEFRIKVSAGGSA [r15_558_TrROS]	1.47 ± 0.046	0.94 ± 0.18	1.28 ± 0.22
SAGGSAFPIRIKDDNQKKIMIPFDSPEELEDLLKEPGIDKVDPEPNPDGNQPWFTIDLPNGKIELWSAGGSA [r15_632_TrROS]	-1.53 ± 0.5	-1.04 ± 0.66	-0.826 ± 0.38
SAGGSAGEAYSVVKASWNPETGTLNIVVKNPSTGEQKVYNIKPGNPVIDFPEGSVIESIEINPSPYSAGGSA [r15_959_TrMRF]	0.237 ± 0.095	1.03 ± 0.2	0.835 ± 0.11
SAGGSAGGAIGTIDYNGKPLRLSVYLPDNPRVFEYPVDGDPLVFAAELNRETGFDVTDVVVVGGSAGGSAGG [r6_762_TrMRF]	0.291 ± 0.098	0.033 ± 0.18	0.132 ± 0.14
SAGGSAGGAPILPEVKKIGFEKLPNGEYKVTIYVKGGKKLAEITFPPNTTIEQAVEDAIEALKSSAGGSAGG [r6_435_TrMRF]	2.3 ± 0.063	2.38 ± 0.048	2.28 ± 0.091
SAGGSAGGAPLMIMLEAEWKREPDPNGDKRRKVKLRVSIMTPRPDPDGKPNMHMISIPITFKVKSAGGSAGG [r6_224_TrROS]	2.87 ± 0.087	4.08 ± 0.07	3.51 ± 0.2
SAGGSAGGAPPDARVTIEVELKNPDGTPISEEEVIEKLKPLGLEPVEIDVDPETGKVTITVRVLSAGGSAGG [r6_774_JUSTAS]	1.69 ± 0.053	1.04 ± 0.092	1.41 ± 0.083
SAGGSAGGDGPGAPPVPRIRIKVEFEHNGKKVTWEFRSLDDMKEQVKERFKENGLKVKITEIEWSAGGSAGG [r6_869_TrROS]	1.67 ± 0.06	2.04 ± 0.041	1.88 ± 0.1
SAGGSAGGDPRPVRVEVLRLEYDPPSGLLRALVRNPENDLLVFATLRIFPDPAGAELRVESVVFSAGGSAGG [r6_70_TrMRF]	1.39 ± 0.071	2.85 ± 0.1	2.49 ± 0.11
SAGGSAGGDSIEFIIPYDDMPKEEAKRRVRWIANGFAEHNPGKPIEIEIHVIPVPPPPSPEDKNSAGGSAGG [r6_729_TrROS]	-0.0761 ± 0.16	-0.467 ± 0.66	-0.163 ± 0.16
SAGGSAGGDTITIWIPGMPLEELRDLLKAFFPGKDVSVEYDPEHGSFVLTVNGKKITIHIMPPNSAGGSAGG [r6_609_TrROS]	3.89 ± 0.1	4.45 ± 0.061	4.45 ± 0.086
SAGGSAGGDTVVIEVDMSEEEALALARALADAGKTVEIVVRDKDGRTRKITITVPPEELELPEESAGGSAGG [r6_62_TrROS_Hall]	1.74 ± 0.019	2.11 ± 0.029	1.95 ± 0.042
SAGGSAGGDYMMIKITNGSIKLMDGDDGKPIANLPPNQEITIMIPIKPPPPPEERKYDPNGKPKSAGGSAGG [r6_40_TrROS]	0.515 ± 0.2	1.24 ± 0.2	0.799 ± 0.32
SAGGSAGGDYVKIEIWIPPGMPDAEELVDKMSNYGFEIKKIERDPKNNYVRVTIVFQIPPGAIKSAGGSAGG [r6_604_TrROS]	1.67 ± 0.084	2.43 ± 0.067	2.26 ± 0.27
SAGGSAGGEDPNFTPPVKVYYLDLEIEVKPNEIEKLKEEFPDLEAEYEKLGDTYKVKLRIPVPVSAGGSAGG [r6_685_TrMRF]	1.51 ± 0.077	2.03 ± 0.12	1.85 ± 0.17
SAGGSAGGEEEETVTLTLEVEVEAEVKVEKNADGEETEVEVKVKRVRVRLTLTLTKEELEKLLKSAGGSAGG [r6_119_TrROS_Hall]	2.59 ± 0.14	4.17 ± 0.15	3.54 ± 0.31
SAGGSAGGEELLATATPVTVGDEVYYRFTIRNPDGTPIGDRLVPASVLSGYSPDTVITLPPDLLSAGGSAGG [r6_34_JUSTAS]	1.29 ± 0.024	0.784 ± 0.16	1.04 ± 0.094
SAGGSAGGEGWRPLNVWIPFPDPKARLDEIVDMISKLFGWPIKIKITEVIPGDPDMIRVTIYVPSAGGSAGG [r6_211_TrROS]	3.41 ± 0.11	3.53 ± 0.056	3.47 ± 0.091
